# Measured values published in publication PMC9114808.
# Biological target: 14-3-3 protein gamma (UniProt P61982)
# Test: peptide bead pull-down, label-free MS
# Details: reference: unphosphorylated peptide; sites T426
substance,measurement,value
"Septin 7 (Sept7) C-terminal tail peptide C-terminal tail, 416-438 (from UniProt Q16181) pT426 peptide",binding against the reference,stronger
